Experimental data as given in patent US20190040149A1 (Innovent, published 2019).
Substitutions are numbered along the chain they refer to.

Tests used:
[1] = molecular target: T1, human PD-1_HIS (human, UniProt Q15116 25-167, limits assumed); test: bio-layer interferometry (ForteBio), human PD-1_HIS in solution, IgG on sensor tip
T1 construct: not shown: His tag
Protocol: Briefly, ForteBio affinity measurements were performed by loading IgGs online onto AHQ sensors. Sensors were equilibrated off-line in assay buffer for 30 min and then monitored on-line for 60 seconds for baseline establishment. Sensors with loaded IgGs were exposed to 100 nM antigen for 5 min, afterwards they were transferred to assay buffer for 5 min for off-rate measurement. Kinetics was analyzed using the 1:1 binding model.

[2] = molecular target: T2, human PD-1 (soluble antigen of the MSD assay, b-PD-1 monomer) (human, UniProt Q15116 25-170, limits assumed, biotinylated (b-PD-1), site not stated); test: MSD solution equilibrium titration, avid KD
T2 construct: The antigen format of the 'avid' measurement is not described
Protocol: (§1) Equilibrium affinity measurements are performed as previously described (Estep, P., et al., MAbs, 2013. 5(2): p. 270-8). Solution equilibrium titrations (SET) are performed in PBS+0.1% IgG-Free BSA (PBSF) where antigen (b-PD-1 monomer) is held constant at 10-100 pM and is incubated with 3- to 5-fold serial dilutions of Fab or mAbs starting at 5-100 nM (experimental condition is sample dependent). Antibodies diluted at 20 nM in PBS are coated onto standard bind MSD-ECL plates overnight at 4° C. or at room temperature for 30 min. Plates are blocked with BSA for 30 min whilst shaking at 700 rpm. Plates are then washed 3× with wash buffer (PBSF+0.05% Tween 20). SET samples are applied and incubated on the plates for 150 s with shaking at 700 rpm followed by one wash. Antigen captured on a plate is detected with 250 ng/mL sulfotag-labeled streptavidin in PBSF by incubation on the plate for 3 min. The plates are washed three times with wash buffer and are then read on the MSD Sector Imager 2400 instrument using 1× Read Buffer T with surfactant. The percent free antigen is plotted as a function of titrated antibody in Prism and fit to a quadratic equation to extract the KD. To improve throughput, liquid handling robots are used throughout MSD-SET experiments, including for SET sample preparation.

[3] = molecular target: T3, murine PD-1 on CHO cells (mouse, UniProt Q02242 25-288); test: flow cytometry on CHO cells with murine PD-1
T3 sequence: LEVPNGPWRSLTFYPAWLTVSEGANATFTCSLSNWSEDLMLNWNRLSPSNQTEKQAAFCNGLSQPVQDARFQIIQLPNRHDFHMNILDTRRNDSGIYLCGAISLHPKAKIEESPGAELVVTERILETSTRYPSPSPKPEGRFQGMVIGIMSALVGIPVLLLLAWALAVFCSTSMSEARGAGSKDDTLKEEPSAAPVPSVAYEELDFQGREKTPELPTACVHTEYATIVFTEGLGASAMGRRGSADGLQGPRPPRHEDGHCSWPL
Protocol: (§2) Cells are then washed 3×, and are incubated with a secondary antibody (PE-labelled, at final concentration of 5 μg/ml) in PBS 1% BSA for 30 min on ice (protected from light). Cells are washed 3× and analyzed via flow cytometry. Flow cytometry is performed on an Accuri C6 system (BD Biosciences) and MFIs are calculated on the C6 software. EC50 s are calculated on Graphpad software.

[4] = molecular target: T2, human PD-1 (soluble antigen of the MSD …); test: MSD solution equilibrium titration, monovalent KD
Protocol: as §1

[5] = molecular target: T4, murine PD-1 (soluble antigen of the MSD assay) (mouse, UniProt Q02242 25-169, limits assumed); test: MSD solution equilibrium titration, monovalent KD
T4 construct: also called mouse PD-1
T4 sequence: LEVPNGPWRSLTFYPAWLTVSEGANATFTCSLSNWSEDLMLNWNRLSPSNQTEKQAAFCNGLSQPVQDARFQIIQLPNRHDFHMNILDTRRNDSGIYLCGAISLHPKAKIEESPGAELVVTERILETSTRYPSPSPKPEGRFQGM
Protocol: as §1

[6] = molecular target: T5, human PD-1 on cells (CHO cells; T cells in the mixed lymphocyte reaction) (human, UniProt Q15116 25-288); test: flow cytometry on CHO cells with human PD-1 (n=1)
T5 construct: also called human PD-1 on CHO cells
Protocol: as §2

[7] = molecular target: T5, human PD-1 on cells (CHO cells; T cells …); test: cell-based or functional assay
[8] = molecular target: T5, human PD-1 on cells (CHO cells; T cells …); test: cell-based or functional assay; remark: listed apart in the source
[9] = molecular target: T5, human PD-1 on cells (CHO cells; T cells …); test: flow cytometry, remaining PD-L2-FITC signal after 100 nM antibody; competitor PD-L2-FITC
Protocol: CHO cells 0.2×10⁶ are incubated with the experimental antibody (100 nM) for 30 min in PBS 1% BSA on ice. […] Cells are washed 3× and analyzed via flow cytometry. Flow cytometry is performed on an Accuri C6 system (BD Biosciences) and MFIs are calculated on the C6 software. EC50 s are calculated on Graphpad software.

[10] = molecular target: T4, murine PD-1 (soluble antigen of the MSD …); test: MSD solution equilibrium titration, avid KD
Protocol: as §1

[11] = molecular target: T6, human PD-1_Fc (human, UniProt Q15116 25-167, limits assumed); test: bio-layer interferometry (ForteBio), Fab in solution, human PD-1_Fc on sensor tip
T6 construct: not shown: Fc part

[12] = molecular target: cyno PD-1_Fc (cyno); test: bio-layer interferometry (ForteBio), Fab in solution, cyno PD-1_Fc on sensor tip
[13] = molecular target: T7, murine PD-1_Fc (mouse, UniProt Q02242 25-167, limits assumed); test: bio-layer interferometry (ForteBio), Fab in solution, murine PD-1_Fc on sensor tip
T7 construct: not shown: Fc part
T7 sequence: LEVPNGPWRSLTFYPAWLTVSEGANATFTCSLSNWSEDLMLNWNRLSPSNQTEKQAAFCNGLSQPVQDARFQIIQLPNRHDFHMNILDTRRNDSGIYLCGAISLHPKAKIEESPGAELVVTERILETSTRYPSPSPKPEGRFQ

T5 sequence (Q15116 25-288 limits assumed): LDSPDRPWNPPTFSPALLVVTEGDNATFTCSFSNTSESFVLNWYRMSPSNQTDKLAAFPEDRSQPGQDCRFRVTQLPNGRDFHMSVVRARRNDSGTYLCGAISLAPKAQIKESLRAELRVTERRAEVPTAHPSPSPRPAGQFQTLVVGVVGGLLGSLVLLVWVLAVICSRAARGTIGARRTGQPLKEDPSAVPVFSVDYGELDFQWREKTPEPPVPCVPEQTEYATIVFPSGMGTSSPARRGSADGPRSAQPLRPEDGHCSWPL
T6 sequence (Q15116 25-167 limits assumed): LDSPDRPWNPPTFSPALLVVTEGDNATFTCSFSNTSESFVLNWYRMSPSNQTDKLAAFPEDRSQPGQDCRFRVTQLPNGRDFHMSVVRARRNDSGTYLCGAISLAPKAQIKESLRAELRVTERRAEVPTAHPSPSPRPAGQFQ
T1 sequence (Q15116 25-167 limits assumed): as above
T2 sequence (Q15116 25-170 limits assumed): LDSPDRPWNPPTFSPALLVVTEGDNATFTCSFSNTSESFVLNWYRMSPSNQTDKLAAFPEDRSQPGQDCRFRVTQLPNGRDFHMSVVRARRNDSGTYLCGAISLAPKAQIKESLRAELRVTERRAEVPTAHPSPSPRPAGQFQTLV

B1: Antibody D, IgG1 format expressed in yeast (antibody, V domains shown)
VH: QVQLVQSGAEVKKPGASVKVSCKASGYTFEKYYMHWVRQAPGQGLEWMGIINPDGGSTGYAQKFQGRVTMTRDTSTSTVYMELSSLRSEDTAVYYCAKEGVADGYGLVDVWGQGTMVTVSS
VL: EIVLTQSPATLSLSPGERATLSCRASQSVSSYLAWYQQKPGQAPRLLIYDASKRATGIPARFSGSGSGTDFTLTISSLEPEDFAVYYCDQRNNWPLTFGGGTKVEIK
notes: Tested in IgG1 format, expressed in yeast
[1]
  Kd: 1.9 nM
[2]
  Kd: 0.035 nM
[3]
  EC50: 9.26 nM
[4]
  Kd: 0.3 nM
[5]
  Kd: 2.3 nM

B2: Antibody A, IgG1 format expressed in yeast (antibody, V domains shown)
VH: B1 VH with E30T, K31S, D54S, G59S, V119I
VL: B1 VL
notes: as for B1
[6]
  EC50: 10.2 nM
[1]
  Kd: 4.3 nM
[2]
  Kd: 0.049 nM
[3]
  EC50: 11 nM
[7]
  IFNg secretion fold change vs. IgG control, 0.01 nM IgG: 1.49 fold
  IFNg secretion fold change vs. IgG control, 0.1 nM IgG: 1.49 fold
  IFNg secretion fold change vs. IgG control, 1 nM IgG: 1.11 fold
  IFNg secretion fold change vs. IgG control, 10 nM IgG: 1.37 fold
  IFNg secretion fold change vs. IgG control, 100 nM IgG: 1.52 fold
  IFNγ in supernatant, 0.01 nM IgG: 22100 pg/mL
  IFNγ in supernatant, 0.1 nM IgG: 16400 pg/mL
  IFNγ in supernatant, 1 nM IgG: 12900 pg/mL
  IFNγ in supernatant, 10 nM IgG: 18400 pg/mL
  IFNγ in supernatant, 100 nM IgG: 22600 pg/mL
[8]
  IL-2 in supernatant, 0.01 nM IgG: 708 pg/mL
  IL-2 in supernatant, 0.1 nM IgG: 586 pg/mL
  IL-2 in supernatant, 1 nM IgG: 618 pg/mL
  IL-2 in supernatant, 10 nM IgG: 975 pg/mL
  IL-2 in supernatant, 100 nM IgG: 1410 pg/mL
  IL-2 secretion fold change vs. IgG control, 0.01 nM IgG: 1.37 fold
  IL-2 secretion fold change vs. IgG control, 0.1 nM IgG: 1.15 fold
  IL-2 secretion fold change vs. IgG control, 1 nM IgG: 1.23 fold
  IL-2 secretion fold change vs. IgG control, 10 nM IgG: 1.87 fold
  IL-2 secretion fold change vs. IgG control, 100 nM IgG: 2.28 fold
[4]
  Kd: 4.9 nM
[5]
  Kd: 9.6 nM
[9]
  MFI (PD-L2-FITC): 90900 MFI

B3: Antibody B, IgG1 format expressed in yeast (antibody, V domains shown)
VH: B1 VH with K31G, D54E, S57E, G59S, T76I, V79A, S85R, E89D
VL: B1 VL
notes: as for B1
[1]
  Kd: 1.4 nM
[2]
  Kd: 0.014 nM
[10]
  Kd: 0.38 nM
[3]
  EC50: 6.13 nM
[4]
  Kd: 0.13 nM
[5]
  Kd: 2.7 nM

B4: Antibody C, IgG1 format expressed in yeast (antibody, V domains shown)
VH: B1 VH with E30T, K31A, Y32Q, D54S, S57E
VL: B1 VL
notes: as for B1
[6]
  EC50: 4.12 nM
[1]
  Kd: 1 nM
[2]
  Kd: 0.0093 nM
[10]
  Kd: 0.13 nM
[3]
  EC50: 2.88 nM
[7]
  IFNg secretion fold change vs. IgG control, 0.01 nM IgG: 0.97 fold
  IFNg secretion fold change vs. IgG control, 0.1 nM IgG: 1.5 fold
  IFNg secretion fold change vs. IgG control, 1 nM IgG: 1.82 fold
  IFNg secretion fold change vs. IgG control, 10 nM IgG: 1.79 fold
  IFNg secretion fold change vs. IgG control, 100 nM IgG: 1.84 fold
  IFNγ in supernatant, 0.01 nM IgG: 14400 pg/mL
  IFNγ in supernatant, 0.1 nM IgG: 16500 pg/mL
  IFNγ in supernatant, 1 nM IgG: 21100 pg/mL
  IFNγ in supernatant, 10 nM IgG: 24100 pg/mL
  IFNγ in supernatant, 100 nM IgG: 27400 pg/mL
[8]
  IL-2 in supernatant, 0.01 nM IgG: 519 pg/mL
  IL-2 in supernatant, 0.1 nM IgG: 587 pg/mL
  IL-2 in supernatant, 1 nM IgG: 914 pg/mL
  IL-2 in supernatant, 10 nM IgG: 1190 pg/mL
  IL-2 in supernatant, 100 nM IgG: 1620 pg/mL
  IL-2 secretion fold change vs. IgG control, 0.01 nM IgG: 1.01 fold
  IL-2 secretion fold change vs. IgG control, 0.1 nM IgG: 1.15 fold
  IL-2 secretion fold change vs. IgG control, 1 nM IgG: 1.83 fold
  IL-2 secretion fold change vs. IgG control, 10 nM IgG: 2.29 fold
  IL-2 secretion fold change vs. IgG control, 100 nM IgG: 2.62 fold
[4]
  Kd: 0.12 nM
[5]
  Kd: 1.9 nM
[9]
  MFI (PD-L2-FITC): 30100 MFI

B5: Antibody F, IgG1 format expressed in yeast (antibody, V domains shown)
VH: B1 VH with E30S, K31A
VL: B1 VL
notes: as for B1
[1]
  Kd: 1.6 nM
[2]
  Kd: 0.018 nM
[10]
  Kd: 0.44 nM
[3]
  EC50: 5.86 nM
[4]
  Kd: 0.17 nM
[5]
  Kd: 1.2 nM

B6: Fab of Antibody C (Fab, V domains shown)
VH: B1 VH with E30T, K31A, Y32Q, D54S, S57E
VL: B1 VL
notes: Fab in solution in BLI; also called Antibody C (Fab in solution)
[11]
  Kd: 2 nM
[12]
  Kd: 2.4 nM
[13]
  Kd: 10 nM

B7: Fab of Antibody A (Fab, V domains shown)
VH: B1 VH with E30T, K31S, D54S, G59S, V119I
VL: B1 VL
notes: Fab used in solution in the bio-layer interferometry columns 'Fab in solution'; also called Antibody A (Fab in solution)
[11]
  Kd: 16 nM
[12]
  Kd: 14 nM
[13]
  Kd: 33 nM

B8: Fab of Antibody D (Fab, V domains shown)
VH: B1 VH
VL: B1 VL
notes: Fab in solution in BLI; also called Antibody D (Fab in solution)
[11]
  Kd: 3.4 nM
[12]
  Kd: 4.4 nM
[13]
  Kd: 7.8 nM

B9: Fab of Antibody B (Fab, V domains shown)
VH: B1 VH with K31G, D54E, S57E, G59S, T76I, V79A, S85R, E89D
VL: B1 VL
notes: Fab in solution in BLI; also called Antibody B (Fab in solution)
[11]
  Kd: 2.7 nM
[12]
  Kd: 3.7 nM
[13]
  Kd: 17 nM

B10: Fab of Antibody E (Fab, V domains shown)
VH: B1 VH with E30T, K31S, Y32N, D54S, G55E
VL: B1 VL
notes: Fab in solution in BLI; also called Antibody E (Fab in solution)
[11]
  Kd: 2.7 nM
[12]
  Kd: 3.3 nM
[13]
  Kd: 7.6 nM

B11: Fab of Antibody F (Fab, V domains shown)
VH: B1 VH with E30S, K31A
VL: B1 VL
notes: Fab in solution in BLI; also called Antibody F (Fab in solution)
[11]
  Kd: 3 nM
[12]
  Kd: 3.6 nM
[13]
  Kd: 6.1 nM
